Laboratory results: patent publication US10407469B2, “Programmable polypeptide and nucleic acid nanoparticles” (Northwestern University, priority 2016, dated 2019)

Columns and labels:
siRNA [1] = assay: Nanoparticle self-assembly upon siRNA binding (DLS, cryo-TEM); type: physicochemical
Source text: (§1) FIGS. 1A-I. Nanoparticles of an engineered polypeptide carrying siRNA (A) C-terminus RNA binding motif CT-dsRBD (in yellow) excised from a canonical double stranded RNA binding domain (dsRBD) and fused to a self-assembly enhancer […] in order to obtain the engineered RNA binding polypeptide (P4) (B) electrophoresis gels of proteins binding siRNA (left). Plot of the bound siRNA (right). (C) Structural change of P4 and CT-dsRBD upon binding to siRNA determined by circular dichroism. (D) Increase in hydrodynamic size of P4 upon siRNA binding determined by DLS. (E) siRNA-P4 nanoparticles in solution imaged by cryo-TEM. Scale bar is 200 nm. […] (H) Salt stability of P4 nanoparticles. (I) Formation of siRNA-P4 nanoparticles in different buffers.
(§2) FIGS. 2A-J. Programmable protein for bioactive siRNA delivery nanoparticles. (A) P4 is functionalized with bioactive peptides, P4-RGD & P4-His6. […] (E) Ellipticity change in function of siRNA concentration (bottom scale) and P4-to-siRNA stoichiometry (top scale). (F) Hydrodynamic size and (G) Zeta potential of P4 nanoparticles. (H & I) Cryo-TEM and (j) AFM micrographs of siRNA-P4 nanoparticles.

siRNA [2] = assay: siRNA binding, electrophoresis gels; conditions: compared with P4
Source text: as §1, §2

siRNA [3] = assay: Structural change upon siRNA binding, circular dichroism; type: physicochemical
Source text: as §1, §2

P4: engineered RNA binding polypeptide: CT-dsRBD RNA binding motif fused to a self-assembly enhancer helix (SIRKLEYEIEELRLRIGGGTFVETGSGTSKQVAKRVAAEKLLTKFKT)
self-assembly into nanoparticles upon binding to nucleic acid (siRNA [1]): self-assembles into nanoparticles upon binding to siRNA | hydrodynamic size upon siRNA binding (siRNA [1]; determined by DLS): Increase

P4-RGD: P4 functionalized with bioactive peptide RGD (CRGDCSIRKLEYEIEELRLRIGGGTFVETGSGTSKQVAKRVAAEKLLTKFKT)
binding to siRNA / nucleic acid cargo (siRNA [2]): bind to siRNA similarly as P4 | Structural change triggered by siRNA binding (siRNA [3]): triggered by siRNA binding as in P4

P4-His6: P4 functionalized with bioactive peptide His6 (HHHHHHSIRKLEYEIEELRLRIGGGTFVETGSGTSKQVAKRVAAEKLLTKFKT)
binding to siRNA / nucleic acid cargo (siRNA [2]): bind to siRNA similarly as P4 | Structural change triggered by siRNA binding (siRNA [3]): triggered by siRNA binding as in P4
